The text below walks through data of PMC3433420.

By Kd is commonly meant the equilibrium constant for the complex coming apart. A high value points to lower affinity.

“And” between values parts separate entries of the source, which are not always exact repeats. Equal values may be shown once. Read-outs that look alike come from different tables or passages of the source.

Experiment [1] addresses PLCG1-C (Homo sapiens) (UniProt P19174). The settings on record: cited from earlier work.
For experiment [2], the target named is PIK3R3-C (Homo sapiens) (UniProt Q92569). The settings on record: cited from earlier work.
Experiment [3] addresses DAPP1 (Homo sapiens) (UniProt Q9UN19). The settings on record: cited from earlier work.
Experiment [4] addresses SH3BP2 (Homo sapiens) (UniProt P78314). The following applies: cited from earlier work.
Experiment [5] has as its target GRB7 (Homo sapiens) (UniProt Q14451). The following applies: cited from earlier work.
Experiment [6] has as its target FER (Homo sapiens) (UniProt P16591). The settings on record: cited from earlier work.
Experiment [7] has as its target PIK3R1-N (Homo sapiens) (UniProt P27986). The following applies: cited from earlier work.
For experiment [8], the target named is TNS4 (Homo sapiens) (UniProt Q8IZW8). The settings on record: cited from earlier work.
Chain of TNS4 (Homo sapiens) (Q8IZW8 444-561): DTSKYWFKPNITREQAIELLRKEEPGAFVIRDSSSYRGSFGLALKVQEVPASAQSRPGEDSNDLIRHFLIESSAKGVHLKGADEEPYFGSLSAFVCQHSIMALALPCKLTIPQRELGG
Experiment [9] addresses HSH2D (Homo sapiens) (UniProt Q96JZ2). The settings on record: cited from earlier work.
The target of experiment [10] is LYN SH2 domain (human) (UniProt P07948). Nature of the experiment: peptide or protein array; SH2/PTB proteins spotted on aldehyde slides, rhodamine peptide titrated in buffer B (20 mM HEPES, 100 mM KCl, 0.1% Tween-20, 5 mM DTT, pH 7.8), 1 h at room temperature; replicate assays.
Chain of LYN SH2 domain (human) (P07948 129-226): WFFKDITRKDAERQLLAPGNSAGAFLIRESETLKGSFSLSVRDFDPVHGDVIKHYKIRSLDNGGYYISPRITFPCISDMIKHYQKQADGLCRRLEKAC
For experiment [11], the target named is SH2D1A SH2 domain (human) (UniProt O60880). The experiment is described as above.
Chain of SH2D1A SH2 domain (human) (O60880 6-104): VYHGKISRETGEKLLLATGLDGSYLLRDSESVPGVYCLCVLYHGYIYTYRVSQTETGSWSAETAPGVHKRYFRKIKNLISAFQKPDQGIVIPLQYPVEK
In experiment [12] the target is SH2D3A SH2 domain (human) (UniProt Q9BRG2). The experiment is described as above.
Chain of SH2D3A SH2 domain (human) (Q9BRG2 15-114): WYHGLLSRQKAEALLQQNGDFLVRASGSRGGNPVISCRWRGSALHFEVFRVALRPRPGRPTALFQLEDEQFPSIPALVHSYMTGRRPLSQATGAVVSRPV
For experiment [13], the target named is SH2D2A SH2 domain (human) (UniProt Q9NP31). Described as above.
Chain of SH2D2A SH2 domain (human) (Q9NP31 95-186): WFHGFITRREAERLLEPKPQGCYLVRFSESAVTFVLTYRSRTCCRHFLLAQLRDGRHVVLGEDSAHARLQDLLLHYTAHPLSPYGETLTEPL
The target in experiment [14] is SRC (Homo sapiens) (UniProt P12931). The following applies: cited from earlier work.
Experiment [15] addresses SYK-NC (Homo sapiens) (UniProt P43405). The settings on record: cited from earlier work.
The target of experiment [16] is TNS1 (Homo sapiens) (UniProt Q9HBL0). The settings on record: cited from earlier work.
Chain of TNS1 (Homo sapiens) (Q9HBL0 1562-1681): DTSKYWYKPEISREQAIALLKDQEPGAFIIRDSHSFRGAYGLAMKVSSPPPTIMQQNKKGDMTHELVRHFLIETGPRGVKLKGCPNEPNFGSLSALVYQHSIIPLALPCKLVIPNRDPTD
Experiment [17] concerns the target SOCS2 (Homo sapiens) (UniProt O14508). The following applies: cited from earlier work.
The target of experiment [18] is SOCS6 (Homo sapiens) (UniProt O14544). The following applies: cited from earlier work.
Chain of SOCS6 (Homo sapiens) (O14544 379-496): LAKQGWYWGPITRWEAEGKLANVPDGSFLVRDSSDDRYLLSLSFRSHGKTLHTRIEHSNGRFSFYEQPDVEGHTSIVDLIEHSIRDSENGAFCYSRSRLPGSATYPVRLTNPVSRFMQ
Experiment [19] has as its target SOCS5 (Homo sapiens) (UniProt O75159). The following applies: cited from earlier work.
Experiment [20] concerns the target RASA1-NC (Homo sapiens) (UniProt P20936). The settings on record: cited from earlier work.
Experiment [21] has the same target. The following applies: cited from earlier work. The source holds these as a separate data set.
For experiment [22], the target named is RASA1-N (Homo sapiens) (UniProt P20936). The following applies: cited from earlier work.
Chain of RASA1-N (Homo sapiens) (P20936 176-446): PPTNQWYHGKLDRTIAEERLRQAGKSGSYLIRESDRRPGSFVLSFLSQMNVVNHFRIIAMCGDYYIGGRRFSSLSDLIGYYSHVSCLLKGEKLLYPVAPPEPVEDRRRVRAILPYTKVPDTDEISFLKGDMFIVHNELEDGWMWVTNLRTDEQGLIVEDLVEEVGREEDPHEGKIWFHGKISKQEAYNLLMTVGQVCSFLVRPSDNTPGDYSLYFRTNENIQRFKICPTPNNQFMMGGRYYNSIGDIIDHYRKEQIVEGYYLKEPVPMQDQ
Experiment [23] has as its target RASA1-NC (Homo sapiens) (UniProt P20936). The settings on record: cited from earlier work. This is another data set of the same source.
The target of experiment [24] is SHC1-PTB (Homo sapiens) (UniProt P29353). The settings on record: cited from earlier work.
Chain of SHC1-PTB (Homo sapiens) (P29353 483-583): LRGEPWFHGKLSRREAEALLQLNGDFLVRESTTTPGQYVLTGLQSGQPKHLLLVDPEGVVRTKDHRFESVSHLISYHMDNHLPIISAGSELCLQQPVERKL
Experiment [25] deals with PIK3R1-NC (Homo sapiens) (UniProt P27986). The settings on record: cited from earlier work.
Chain of PIK3R1-NC (Homo sapiens) (P27986 328-723): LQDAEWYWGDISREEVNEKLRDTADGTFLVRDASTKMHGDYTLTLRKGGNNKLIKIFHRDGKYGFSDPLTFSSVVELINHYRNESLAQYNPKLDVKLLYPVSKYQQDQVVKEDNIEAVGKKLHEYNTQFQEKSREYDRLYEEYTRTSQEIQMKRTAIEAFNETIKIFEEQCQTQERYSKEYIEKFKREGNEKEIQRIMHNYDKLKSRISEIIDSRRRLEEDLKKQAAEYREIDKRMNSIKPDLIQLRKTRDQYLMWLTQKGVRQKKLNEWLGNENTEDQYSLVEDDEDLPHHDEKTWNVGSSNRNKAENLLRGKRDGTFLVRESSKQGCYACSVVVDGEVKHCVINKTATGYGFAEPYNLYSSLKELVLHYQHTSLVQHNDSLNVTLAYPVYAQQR
Experiment [26] addresses SH2D3A (Homo sapiens) (UniProt Q9BRG2). The settings on record: cited from earlier work.
The target of experiment [27] is NCK2 (Homo sapiens) (UniProt O43639). The following applies: cited from earlier work.
Chain of NCK2 (Homo sapiens) (O43639 280-380): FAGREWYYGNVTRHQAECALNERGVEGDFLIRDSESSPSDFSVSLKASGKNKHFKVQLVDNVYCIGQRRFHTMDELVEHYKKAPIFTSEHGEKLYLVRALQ
The target in experiment [28] is VAV2 (Homo sapiens) (UniProt P52735). The following applies: cited from earlier work.
Chain of VAV2 (Homo sapiens) (P52735 668-772): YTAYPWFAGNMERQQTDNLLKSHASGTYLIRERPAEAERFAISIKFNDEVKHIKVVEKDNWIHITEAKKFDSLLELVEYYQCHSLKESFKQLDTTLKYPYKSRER

Chain of RASA1-NC (Homo sapiens) (P20936 176-446): as the sequence (P20936 176-446) above
Chain of HSH2D (Homo sapiens) (Q96JZ2 29-130): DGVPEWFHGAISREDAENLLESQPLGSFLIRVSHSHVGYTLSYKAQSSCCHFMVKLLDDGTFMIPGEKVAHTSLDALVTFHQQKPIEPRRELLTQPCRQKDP
Chain of SH2D3A (Homo sapiens) (Q9BRG2 10-119): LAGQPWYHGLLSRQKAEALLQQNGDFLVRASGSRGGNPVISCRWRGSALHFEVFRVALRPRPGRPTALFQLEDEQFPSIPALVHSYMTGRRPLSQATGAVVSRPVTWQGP
Chain of FER (Homo sapiens) (P16591 455-555): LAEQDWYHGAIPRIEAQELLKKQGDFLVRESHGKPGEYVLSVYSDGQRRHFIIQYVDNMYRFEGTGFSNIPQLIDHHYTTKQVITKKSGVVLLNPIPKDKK
Chain of PLCG1-C (Homo sapiens) (P19174 545-761): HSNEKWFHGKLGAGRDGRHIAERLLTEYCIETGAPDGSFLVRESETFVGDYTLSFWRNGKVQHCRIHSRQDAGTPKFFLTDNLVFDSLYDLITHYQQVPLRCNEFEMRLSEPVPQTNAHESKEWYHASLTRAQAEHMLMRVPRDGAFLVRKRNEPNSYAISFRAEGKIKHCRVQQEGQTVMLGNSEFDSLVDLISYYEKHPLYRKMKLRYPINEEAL
Chain of DAPP1 (Homo sapiens) (Q9UN19 30-134): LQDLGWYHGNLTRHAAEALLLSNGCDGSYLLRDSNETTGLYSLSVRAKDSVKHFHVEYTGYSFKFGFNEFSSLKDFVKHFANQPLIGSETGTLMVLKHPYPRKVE
Chain of SOCS5 (Homo sapiens) (O75159 376-481): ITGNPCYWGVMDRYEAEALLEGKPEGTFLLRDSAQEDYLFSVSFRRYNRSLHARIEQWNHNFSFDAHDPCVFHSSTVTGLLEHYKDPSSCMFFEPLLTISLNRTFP
Chain of PIK3R1-N (Homo sapiens) (P27986 328-723): as the sequence (P27986 328-723) above
Chain of SOCS2 (Homo sapiens) (O14508 43-161): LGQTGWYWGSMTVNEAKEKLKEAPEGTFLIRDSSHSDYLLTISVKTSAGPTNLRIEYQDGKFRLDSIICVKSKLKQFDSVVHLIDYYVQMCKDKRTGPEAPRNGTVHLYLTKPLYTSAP
Chain of SH3BP2 (Homo sapiens) (P78314 452-560): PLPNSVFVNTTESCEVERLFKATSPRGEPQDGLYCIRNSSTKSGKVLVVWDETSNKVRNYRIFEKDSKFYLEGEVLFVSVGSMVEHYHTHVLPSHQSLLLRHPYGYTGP
Chain of GRB7 (Homo sapiens) (Q14451 426-532): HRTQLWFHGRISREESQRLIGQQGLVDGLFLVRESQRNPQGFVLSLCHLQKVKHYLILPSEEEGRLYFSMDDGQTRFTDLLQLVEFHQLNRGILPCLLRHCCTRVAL

…pYEEMRAFQ: the apparent Kd (screen) in experiment [1] is 321 nM; in experiment [2], 12 nM; in experiment [3], 999 nM; in experiment [4], 2000 nM; in experiment [5], 1520 nM; in [6], 499 nM. Also, the apparent Kd (screen) in [7] is 210 nM; in experiment [8], 1950 nM; in experiment [9], 2000 nM.
Turning to “ErbB4 pY1262 phosphopeptide, rhodamine-labelled, for protein microarrays”, the Kd in experiment [10] is 201 nM and 579 nM; in experiment [11] it was 413 nM and 591 nM; in [12] it was 177 nM and 402 nM; in experiment [13] it was 1170 nM.
For …pYWDQDPPE, the apparent Kd (screen) in [14] is 196 nM; in experiment [15] it was 456 nM; in experiment [16], 2000 nM; in [17], 2000 nM; in [18] it was 2000 nM; in [19] it was 2000 nM.
For the substance …pYLVPQQGF, the apparent Kd (screen) in experiment [20] was 1770 nM; in experiment [21] it was 2000 nM; in experiment [22] it was 2000 nM.
In the case of …pYLIPQQGFd, the apparent Kd (screen) in experiment [23] is 1420 nM; in experiment [24] it was 628 nM; in [25], 175 nM; in experiment [26] it was 2000 nM; in [27], 2000 nM; in experiment [28] it was 2000 nM.
